This assay has as its target intact GluN1b-GluN2B NMDA receptor (rat) (UniProt Q00960).

Chain of intact GluN1b-GluN2B NMDA receptor (rat) (Q00960 whole entry, looked up): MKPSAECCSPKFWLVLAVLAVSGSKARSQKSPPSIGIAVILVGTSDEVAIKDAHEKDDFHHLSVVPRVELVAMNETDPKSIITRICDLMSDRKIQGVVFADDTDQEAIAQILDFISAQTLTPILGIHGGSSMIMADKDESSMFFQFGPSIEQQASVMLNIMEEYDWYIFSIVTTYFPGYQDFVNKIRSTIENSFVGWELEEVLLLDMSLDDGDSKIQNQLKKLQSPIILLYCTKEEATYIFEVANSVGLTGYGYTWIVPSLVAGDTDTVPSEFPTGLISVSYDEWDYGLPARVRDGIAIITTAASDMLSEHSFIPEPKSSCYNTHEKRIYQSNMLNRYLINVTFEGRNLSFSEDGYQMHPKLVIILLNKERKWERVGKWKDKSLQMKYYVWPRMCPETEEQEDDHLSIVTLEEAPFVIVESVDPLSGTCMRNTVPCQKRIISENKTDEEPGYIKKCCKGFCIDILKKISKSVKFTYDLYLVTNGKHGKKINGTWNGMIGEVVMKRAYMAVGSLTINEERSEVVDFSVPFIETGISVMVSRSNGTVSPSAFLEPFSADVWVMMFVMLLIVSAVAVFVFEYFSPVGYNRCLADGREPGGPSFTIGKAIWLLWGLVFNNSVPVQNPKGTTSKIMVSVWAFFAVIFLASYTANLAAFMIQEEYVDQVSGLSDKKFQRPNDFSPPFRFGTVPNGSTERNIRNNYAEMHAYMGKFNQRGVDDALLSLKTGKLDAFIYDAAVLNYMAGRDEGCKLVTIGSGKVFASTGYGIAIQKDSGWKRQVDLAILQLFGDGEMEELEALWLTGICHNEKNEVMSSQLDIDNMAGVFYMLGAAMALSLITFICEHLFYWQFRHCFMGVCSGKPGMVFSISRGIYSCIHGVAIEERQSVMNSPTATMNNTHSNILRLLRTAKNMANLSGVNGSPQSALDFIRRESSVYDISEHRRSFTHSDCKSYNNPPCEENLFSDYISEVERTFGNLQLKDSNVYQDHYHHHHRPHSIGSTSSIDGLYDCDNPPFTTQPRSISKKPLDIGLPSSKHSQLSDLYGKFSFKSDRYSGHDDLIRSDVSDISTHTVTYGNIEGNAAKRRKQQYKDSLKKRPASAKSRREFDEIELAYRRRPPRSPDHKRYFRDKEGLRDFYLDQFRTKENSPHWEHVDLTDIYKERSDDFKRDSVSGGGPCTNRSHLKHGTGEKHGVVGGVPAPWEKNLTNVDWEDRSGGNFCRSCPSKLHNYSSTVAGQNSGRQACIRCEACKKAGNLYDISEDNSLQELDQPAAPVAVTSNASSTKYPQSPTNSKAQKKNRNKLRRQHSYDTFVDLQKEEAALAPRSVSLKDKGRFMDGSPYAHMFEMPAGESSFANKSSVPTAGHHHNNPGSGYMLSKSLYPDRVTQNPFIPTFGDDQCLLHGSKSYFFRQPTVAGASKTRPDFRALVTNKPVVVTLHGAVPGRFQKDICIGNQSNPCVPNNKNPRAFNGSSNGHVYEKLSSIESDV

B1: Fv2, variable fragment (Fv) of IgG2 (protein)
VH: DVKLQESGGGLVQPGGSLKLSCAASGFTFSSYTMSWVRQTPEKRLEWVAYISNGGGGTYYPDTVKGRFTISRDNAKNTLYLQMNSLKEDTAMYYCARPSRGGSSYWYFDVWGAGTTVTVSS
VL: DIQMTQSPSSLSASLGGKVTITCKASQDINKYIAWYQHKPGKGPRLLIHYTSSLQPGIPSRFSGSGSGRDYSFSISNLEPEDIATYYCLQYDNLYTFGGGTKLEIK
As to B1, the GluN1b-GluN2B NMDAR current, TEVC on Xenopus oocytes, Fv2 at 0.1 mg/ml (% of maximum current) turned out to be 60.

These data come from publication PMC8854693.
